Measured values as given in patent US7638324 (BURNHAM INSTITUTE FOR MEDICAL RESEARCH, dated 2009).

Legend:
GFP-Bcl-GS = target: T1, GFP-Bcl-GS (human, UniProt P42212 1-238 = GFP, limits assumed); assay: co-immunoprecipitation from lysates of transiently transfected cells
T1 construct: Expressed by transient transfection and immunoprecipitated with polyclonal anti-GFP antibody; also called Bcl-G (short); wild-type Bcl-GS
Procedure: (§1) For co-immunoprecipitations and immunoblotting, immunoblotting was performed as described previously (Xu and Reed, supra., (1998); Zhang et al., supra., (2000)). For co-immunoprecipitations, cells were cultured in […] benzocarbonyl Valine Alanine Aspartate fluoromethyl-ketone (zVAD-fmk) to prevent apoptosis. Cells were suspended in lysis buffer (50 mM Tris-HCl, pH7.4; 150 mM NaCl; 20 mM EDTA; 50 mM NaF; 0.5% NP-40; 0.1 mM Na_3VO_4; 20 µg/ml Leupeptin; 20 µg/ml Aprotinin; 1 mM dithiothreitol (DTT); and 1 mM phenylmethylsulfonylfluoride (PMSF). Lysates (0.2 ml diluted into 1 ml final volume of lysis buffer) were cleared by incubation with 15 µl of protein G-Sepharose 4B (Zymed; South San Francisco Calif.) and then incubated with 15 µl of polyclonal anti-GFP antibody (Santa Cruz; Santa Cruz Calif.) and 15 µl of protein G at 4° C. overnight. Beads were then washed 4 times with 1.5 mls lysis buffer before boiling in Laemmli sample buffer and performing SDS-PAGE/immunoblotting.

[1] = target: T2, Bcl-GS (yeast two-hybrid construct) (human, UniProt Q9BZR8 1-241); assay: yeast two-hybrid
T2 construct: Used in yeast two-hybrid assays
T2 sequence: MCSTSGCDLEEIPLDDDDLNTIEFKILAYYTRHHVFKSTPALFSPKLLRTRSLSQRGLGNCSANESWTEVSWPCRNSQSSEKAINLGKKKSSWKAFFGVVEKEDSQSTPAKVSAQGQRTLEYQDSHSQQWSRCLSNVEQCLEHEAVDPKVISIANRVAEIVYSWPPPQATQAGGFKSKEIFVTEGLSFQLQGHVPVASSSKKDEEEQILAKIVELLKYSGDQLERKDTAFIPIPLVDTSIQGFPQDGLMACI

Bcl-XL = Bcl-XL (UniProt Q07817 1-233); assay: co-immunoprecipitation with anti-GFP antibody, anti-Bcl-XL immunoblot
Procedure: as §1

Bcl-XL, sequence (Q07817 whole entry): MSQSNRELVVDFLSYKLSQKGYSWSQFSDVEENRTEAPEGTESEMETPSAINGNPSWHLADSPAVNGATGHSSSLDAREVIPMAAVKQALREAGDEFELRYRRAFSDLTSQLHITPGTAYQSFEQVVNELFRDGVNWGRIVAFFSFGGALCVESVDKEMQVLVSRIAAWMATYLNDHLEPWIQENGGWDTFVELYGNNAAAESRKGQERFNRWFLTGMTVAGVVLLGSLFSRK

B1: Bad (other, UniProt Q92934 1-168, looked up)
chain: MFQIPEFEPSEQEDSSSAERGLGPSPAGDGPSGSGKHHRQAPGLLWDASHQQEQPTSSSHHGGAGAVEIRSRHSSYPAGTEDDEGMGEEPSPFRGRSRSAPPNLWAAQRYGRELRRMSDEFVDSFKKGLPRPKSAGTATQMRQSSSWTRVFQSWWDRNLGRGSSAPSQ
Question: Does B1 bind (GFP-Bcl-GS)?
Answer: no binding

B2: Bak (other, UniProt Q16611 1-211, looked up)
chain: MASGQGPGPPRQECGEPALPSASEEQVAQDTEEVFRSYVFYRHQQEQEAEGVAAPADPEMVTLPLQPSSTMGQVGRQLAIIGDDINRRYDSEFQTMLQHLQPTAENAYEYFTKIATSLFESGINWGRVVALLGFGYRLALHVYQHGLTGFLGQVTRFVVDFMLHHCIARWIAQRGGWVAALNLGNGPILNVLVVLGVVLLGQFVVRRFFKS
Question: Does B2 bind [1]?
Answer: no binding

Question: Does B2 bind (GFP-Bcl-GS)?
Answer: no binding

B3: GFP-Bcl-GS (ΔBH3) (other)
chain: MCSTSGCDLEEIPLDDDDLNTIEFKILAYYTRHHVFKSTPALFSPKLLRTRSLSQRGLGNCSANESWTEVSWPCRNSQSSEKAINLGKKKSSWKAFFGVVEKEDSQSTPAKVSAQGQRTLEYQDSHSQQWSRCLSNVEQCLEHEAVDPKVISIANRVAEIVYSWPPPQATQAGGFKSKEIFVTEGLSFQLQGHVPVASSSKKDEEEQILAGSDTAFIPIPLVDTSIQGFPQDGLMACI
notes: The limits of the deletion would have to be derived from the primers; they are not guessed here; also called GFP-Bcl-GS (DBH3); mutant of Bcl-GS lacking the BH3 domain; not shown: N-terminal EGFP and the short vector linker of pEGFP-C1 (Clontech)
Question: Does B3 bind (Bcl-XL)?
Answer: no binding

B4: Bid (other, UniProt P55957 1-195, looked up)
chain: MDCEVNNGSSLRDECITNLLVFGFLQSCSDNSFRRELDALGHELPVLAPQWEGYDELQTDGNRSSHSRLGRIEADSESQEDIIRNIARHLAQVGDSMDRSIPPGLVNGLALQLRNTSRSEEDRNRDLATALEQLLQAYPRDMEKEKTMLVLALLLAKKVASHTPSLLRDVFHTTVNFINQNLRTYVRSLARNGMD
Question: Does B4 bind (GFP-Bcl-GS)?
Answer: no binding
